According to the nanobody polyreactivity screen of Harvey et al. (2022):

Experiment: yeast display, Sf9 membrane polyspecificity reagent, FACS + sequencing; frameworks hold sequencing errors
Outline: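 Nanobodies from a synthetic yeast display library (Saccharomyces cerevisiae BJ5465), induced 36–48 hours with galactose, were stained 1 hour at 4 °C with 10% biotinylated, detergent-solubilized Sf9 membrane reagent, enriched on streptavidin microbeads, then FACS-sorted. Anti-HA (expression) and streptavidin (reagent binding) fluorescence set low and high (top ~1%) gates. Polyreactivity labels come from the gate of origin. Genes were colony-PCR amplified, MiSeq 2 × 250 sequenced and filtered by CDR length.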

Sequence	polyreactivity (PSR sort gate)
QVQLVESGGGLVQAGGSLRLSCAASGFTFDHNAMGWYRQAPGKERELVARITGTGDSTYYADSVKGRFTISRDNAKKTVYLQMNSLNPEDSADYYCNADRRYDFYDGYGYWGQGTQVTVSS	low polyreactivity
QVQLVESGGGLVQAGGSLRLSCAASGFTFDIYGMGWYRQAPGKERELVASITSRSARTNYADSVKGRFRISRDNAMNTVYLQMNSLKPEDSAVYYCAADPYTGYTYYWGQVTQVTVSS	high polyreactivity
QVQLVESGGGLVQAGGSLRLSCAASGFTFDKYAMGWYRQAPGKESELVAAISRGGGTKYADSVKGRFTISRDNAKNTVYLQMNSLKPEDTAVYYCVAKFRPDLSRGAYEYWGQGTQVTVSS	high polyreactivity
QVQLVESGGGLVQAGGSLRLSCAASGFTFDLYARGWYRQAPGKERELVAAISSSCGSTYYADSVKGRFTISRDNAKNTVYLQMNSLKPEDTAVYDCARRYLYSSRLVTKYGYGMDYWGQGTQVTVSS	high polyreactivity
QVQLVESGGGLVQAGGSLRLSCAASGFTFDPYAMGWYREAPGKERELVAAISFSGGSTSYADSVKGRFTISRDNAKNSVYFQMNSLKPEDTAVYYCAAYSWLYEGYEYWGQGTQVTVSS	high polyreactivity
QVQLVESGGGLVQAGGSLRLSCAASGFTFDPYAMGWYRQAPGKERELVAAISFSGGSTSYADSVKGRFTISRDNAKNTVYLQMNSLKPEDTAVYYCAAYSWLYEGYEYWGLGTQVTVSS	high polyreactivity
QVQLVESGGGLVQAGGSLRLSCAASGFTFDPYAMGWYRQAPGKERELVAAISISGGRTYYADSVKGRFTISRDNAKNTVYLQMNSLKPEDTAVYYCAVAQSHYFGGYGYWGQGTQVTVSS	low polyreactivity
QVQLVESGGGLVQAGGSLRLSCAASGFTFDRYAMGWYRQAPGKERELVAAISRSGASTYYADSVKGRFTISRDNAKNTVYLQMNSLKPEDTAVDDCAAKQRTKGDYWGQGTQVTVSS	high polyreactivity
QVQLVESGGGLVQAGGSLRLSCAASGFTFDRYAMGWYRQAPGKERELVAAISVSGGRTYYADSVKGRFTISRDNAKNTVYLQMNSLKPEDTAVYYCAARDHSRSRFGYDYLGQGTQVTVSS	high polyreactivity
QVQLVESGGGLVQAGGSLRLSCAASGFTFDRYAMGWYRQAPGKERELVAAITSRGGRTYYADSVKGRFTISRDNAKNTVYLQMNSLKPEDTAVYYCNAVYSQSGYFYRFDYWGQVTQVTVSS	high polyreactivity
QVQLVESGGGLVQAGGSLRLSCAASGFTFDSNAMGWYRQAPGKERELVAAISKRGGSTYYADSVKGRFTISRDNAKNTVYLQMNRLKPEDTAVYYCAADNYNSGGTRHMYYWGQGSQVTVSS	high polyreactivity
QVQLVESGGGLVQAGGSLRLSCAASGFTFDSNAMGWYRQAPGKERELVAAISSSGGSTYYADSVKGRFTISRDNAKNTVYLQMNSLKPEDTAVYYCNARRRTVPYRYDYWGQGTQVTVSS	high polyreactivity
QVQLVESGGGLVQAGGSLRLSCAASGFTFDSYAMGWYRQAPGKERELVAAITSGDSTHYADSVKGRFTISRDNAKNTVYLQMNSLKPEDTAVYYCAASGFPYPYDYWGQGTQVTVSS	low polyreactivity
QVQLVESGGGLVQAGGSLRLSCAASGFTFDSYAMGWYRQAPGQERELVPAISSSSSTNYADSVKGRFTISRDNAKNTVYLPLNSLKPEDTAVYYCNADSPEGYRLLDYWGQGTQVTVSS	low polyreactivity
QVQLVESGGGLVQAGGSLRLSCAASGFTFDTNVRGWYRQAPGKERELVAAITGPGGSTYYADSVKGRFTISRDNAKNTVYLQMNSLNPEDTAVYYCNRVYYRRRLYDYWGQGTQVTVSS	high polyreactivity
QVQLVESGGGLVQAGGSLRLSCAASGFTFDVYAMGWYRQAPGKERELVAAIDSGGSTNYADSVKGRFTISRDNAKNTVYLQMNSLKPEDTAVYYCAAPFVGSVVIRRWDEYDYWGQGTQVTVSS	low polyreactivity
QVQLVESGGGLVQAGGSLRLSCAASGFTFDVYTMGWYRQAPGKEREFVAAISGSGGSTYYADSVKGRFTISRDNAKNTVYLQMNSLKPEDTAVYYCNAGLSRVSHRHRSHSLQGYDYWGQGTQVTVSS	low polyreactivity
QVQLVESGGGLVQAGGSLRLSCAASGFTFDVYTMGWYRQAPGKERELVASITYSGGDTYADSVKGRFTISRDNAKNTVYLQMNRLKPEDTAVYYCNAVVYYYLDEYWGQGTQVTVSS	high polyreactivity
QVQLVESGGGLVQAGGSLRLSCAASGFTFDWNAMGWYRQAPGKERELVAAISSSTGRTYYADSVKGRFTISRDNAKNTVYLQMNSLKPEDTAVYYCAASLGGYGERYYYWGQGTQVTVSS	high polyreactivity
QVQLVESGGGLVQAGGSLRLSCAASGFTFDWYAMGWYRPAPGKERELVAAISSGGNTKYADSVKGRFTISRDNAKNTVYLQMNSLKPEDTAVYYCAARLYYSLSYYYWGQGTQVTVAS	high polyreactivity
QVQLVESGGGLVQAGGSLRLSCAASGFTFDWYAMGWYRQAPGKERELVAAISSGGNTKYADSVKGRFTISRDNAKNTVYLQMNSLKPEDTAVYYCAARLYYSLSYYYWGQGTQVTVSS	high polyreactivity
QVQLVESGGGLVQAGGSLRLSCAASGFTFDYYAMGRDIPAPGKERELVAAISRAGSTNYADSVKGRFTISRDNAKNTVYLQMNSLKPEDTAVYYCNKGYHSWSRLSQFGWSYDYWGQGTQVTVSS	high polyreactivity

Sequence	polyreactivity (PSR sort gate)
QVQLVESGGGLVQAGGSLRLSCAASGFTFDYYAMGWYRQAPGKERELVAAINYSGGSTYYADSVKGRFTISRDNAKNTVYLQMNSLKPEDTAVYYCNAVGYSVFRRYNYWGQGTQVTVSS	high polyreactivity
QVQLVESGGGLVQAGGSLRLSCAASGFTFDYYAMGWYRQAPGKERELVAAISSSGGSTYYADSVKGRFTISRDNAKNTVYLQMNSLKPEDTAVYYCATGHSKKYDYWGQGTQVTVSS	high polyreactivity
QVQLVESGGGLVQAGGSLRLSCAASGFTFDYYAMGWYRQAPGKERELVAAITRSGTRTYYADSVKGRFTISRDNAKNTVYLQMNSLKPEDTAVYYCNVEYPKRANLSDYWGQGTQVTVSS	high polyreactivity
QVQLVESGGGLVQAGGSLRLSCAASGFTFDYYTMGWYRQAPGKERELVAAITSSAGSTDYADSVKGRFTISRDYAKNTVYLQMNSLKPEDTAVYYCNADFLYGTYDYWGQGTQVTVSS	low polyreactivity
QVQLVESGGGLVQAGGSLRLSCAASGFTFEDNTMGWYRQAPGKERELVAAITWGGVSTYYADSVKGRFTISRDNAKNTVYLQMNSLKPEDTAVYYCARDYDVYTVYLMDYWGQGTQVTVSS	low polyreactivity
QVQLVESGGGLVQAGGSLRLSCAASGFTFEENDMGWYRQAPGKETELVAAINWSGGNTYYADSVKGRFTISRDNAKNTVYLQMNSLKPEDTAVYYCAADSPRYYYWVGPYYGYDYWGQGTQVTVSS	high polyreactivity
QVQLVESGGGLVQAGGSLRLSCAASGFTFEFNVMGWYRQAPGKERELVASIRWGSTSYADSVKGRFTISRDNAKNTVYLQMNSLKPEDTALYDCAAVTYDYWRQGTQVTVSS	low polyreactivity
QVQLVESGGGLVQAGGSLRLSCAASGFTFEIYAMGWYRQAPGKEREFVASISWSVGSTYYADSVKGRFTISRDNAKNTVYLQMNSLKPEDTAVYYCNADWRHKYYHSYLYDYWGQGTQVTVSS	low polyreactivity
QVQLVESGGGLVQAGGSLRLSCAASGFTFERNAMGWYRQAPGKERELVATINGSSDSTYYSDSVKGRFTISRDNAKNTVYLQMNSLKPEDTAVYYCNADSITEGNSRYSHFDYWGQGTQVTVSS	low polyreactivity
QVQLVESGGGLVQAGGSLRLSCAASGFTFETYAMGWNRQAPGKERELVASISRSGGRTYYADSVKGRFTISRDNAKNTVYLQMNSLKPDDTAVYYCAAGYYVRYGRRPTGYGGYDYWGQGTQVTVSS	high polyreactivity
QVQLVESGGGLVQAGGSLRLSCAASGFTFEVNAMGWYRQAPGKERELVAAINRGGSTYYADSVKGRFTISRDNAKNTVYFQMNSLKPEDTAVYYCNRDYEYPTYPHDYWGQGTQVTVSS	low polyreactivity
QVQLVESGGGLVQAGGSLRLSCAASGFTFEWYTMRCYRQAPGKERELVADISGDGSTYYADSVKGRFTISRDNAKNTVYLQMNSLKPEDTAVYYCAARTRRYHRPGLSPGNYWGQGTQVTVSS	high polyreactivity
QVQLVESGGGLVQAGGSLRLSCAASGFTFEYYAMGWYRHAPGKERELVAAITSGGTTYYADSVKGRFTISRDNAKNTDYLQMNSLKPEDTAVYYCAAANRFGPYGYWGQGTQVTVSS	high polyreactivity
QVQLVESGGGLVQAGGSLRLSCAASGFTFEYYAMGWYRQAPGKERELVATITSGGSTYYADSVKGRFTISRDNAKNTVYLQMNSLKPDDTAVYYCITSSPWIEDYWGQGTQVTVSS	low polyreactivity
QVQLVESGGGLVQAGGSLRLSCAASGFTFEYYAMGWYRQARGKERELVASITNSGTRTYYADSVKGRFTISRDNAKNTVYLQMNSLKPEDTAVYYCAATPWNGRYSRFGYWGQGTQVTVSS	high polyreactivity
QVQLVESGGGLVQAGGSLRLSCAASGFTFEYYTMGWYRQAPGTERELVAAITKRGGSTYYADSVKGRFTISRDNAKNTVYLQMNSLKPEDTAVYYCAVRKPYSRYTVNYDSWGQGTQVTVSS	high polyreactivity
QVQLVESGGGLVQAGGSLRLSCAASGFTFFANAMGWYRQAPGKERELVAAISISDATTYYADSVKGRFTISRDNAKNTVYLQMNSLKPEDTAVYDCAAEPEYIAGPLDYWGQGTQVTVSS	high polyreactivity
QVQLVESGGGLVQAGGSLRLSCAASGFTFFHNAMGWYRPAPGKERELVAAITSGGNTYYADSVKGRFTISRDNAKNTVYLQMNSLKPEDTAVYYCAASFWSSGQWYDYWGQGTQVTVSS	high polyreactivity
QVQLVESGGGLVQAGGSLRLSCAASGFTFFHYAMGWYRQATGKEREFVAAINTRGSRTYYADSVKGRFTISRDNAKNTVYLQMNSLKPEDTAVYYCAADSVQVYAWQYYYWGQGTQVTVSS	high polyreactivity
QVQLVESGGGLVQAGGSLRLSCAASGFTFFKYAMGWYRQAPGKERVLVAAITRNGGRTYYADSVKGRFTISRDNAKNTVYLQMNSLKPEDTAVYYCNAASVNGGRDFDYWGQGTQVTVSS	high polyreactivity
QVQLVESGGGLVQAGGSLRLSCAASGFTFFPYAMGWYRQAPGKERELVAGITYIGGSTYYADSVKGRFTISRDNAKNTVYLQMNSLKPEDTAVYYCNAGRIGGFDWGQGTQVTVSS	low polyreactivity
